Data: WO2012074097A1 (dated 2012)
Residue numbers refer to the chain shown, from its start.

B1: anti-CD33 monoclonal antibody KM4075 (antibody, V domains shown)
VH: QLQESGPGLVKPSQSLSLTCSVTGYTITSGSDWSWIRKFPGNKMEWMGYISYSGNTNYNPSLKSRISITRDTSKNQFFLHLNSVTTADTATYYCTGKGWGQGVMVTVSS
VL: DVVLTQTPVSLSVTLGDQASISCRSSQSLEYSDGYTYLEWYLQKPGHSPQLLIYGVSNRFSGVPDRFIGSGSGTDFTLRISRVEPEDLGVYYCFQATHDPYTFGAGTKLEL
notes: Hybridoma antibody from rat or mouse
B2: anti-CD33 chimeric antibody KM4054 (antibody, V domains shown)
VH: QLQETGPGLVKPSQSLSLTCSVTGYTITSGYEWTWIRKFPGNRMEWMGYINSSGSTDYNPSLKSRVSITRDTSKNQFFLQLNSVTTEDTATYFCTRWDRWGPGVMVTVSS
VL: DVVLTQTLVAQPVRLGDQASISCRSSQSLVHSDGHTYLEWYLQKPGQSPQLLIYEISNRFSGVPDRFSGSGSGSDFTLKISRVEPEDLGLYYCFQGTHDLPTFGGGTKLELK
notes: Expressed in FUT8 knockout CHO cells, so no core fucose
B3: anti-CD33 monoclonal antibody KM4071 (antibody, V domains shown)
VH: QIQLVQSGPELKKPEETVKISCKASDYTFTDYSIHWVKQAPGKGLKWMGWINTETGETTNADDLKGRFAFSVETSASTAYLQINNLKNEDTATYFCARYRYDASYGMDYWGQGTSVTVSS
VL: STVLTQSPKSMSMSVGERVTLSCKASENVGTYVSWYQQKPEQSPELLIYGSSNRSTGVPDRFTGSGSATDFTLTISSVQAEDLADYHCGQSYSYPPTFGGGTRLEIK
notes: as for B1
B4: anti-CD33 monoclonal antibody KM4073 (antibody, V domains shown)
VH: QVKLLQSGAALVKPGASVKMSCKVSGYTFTDYWVNWVKQSHGKTLEWIGEIYPNSGATNFNEKFKDKATLTVDRSTSTAYLEFSRLTSEDSAIYYCSLGPYWGQGVMVTVSS
VL: DVVLTQTPPTLSATIGQSVSISCRSSQSLLDSDGQTYLNWFLQRPGQSPQLLIYSVSNLESGVPNRFSGSGSETDFTLKISGVEAEDLGLYYCMQATHAPLTFGSGTNLEIK
notes: as for B1
B5: anti-CD33 monoclonal antibody KM4072 (antibody, V domains shown)
VH: QVQLQQSGAELVKPGASVKMSCKASGYTFTTYPIEWMKQNHGKSLEWIGNFHPYNDDTEYNEKFKGKATLTVEKSSSTVYLELSRLTSDDSAVYYCARGYYYAMDYWGQGTSVTVSS
VL: DAVMTQTPLSLPVSLGDQASISCRSSQSLEDSNGNTYLNWYLQKPGQSPQLLIYRVSNRFSGVLDRFSGSGSGTDFTLKISRVEAEDLGVYFCLQLTHVPWTFGGGTKLEIK
notes: as for B1
B6: anti-CD33 monoclonal antibody KM4074 (antibody, V domains shown)
VH: B2 VH
VL: B2 VL
notes: as for B1
B7: modified CD33 chimeric antibody ver.3 (antibody, V domains shown)
VH: B2 VH with N51Q
VL: B2 VL
B8: modified CD33 chimeric antibody ver.1 (antibody, V domains shown)
VH: B2 VH with N51Y
VL: B2 VL
B9: modified CD33 chimeric antibody ver.5 (antibody, V domains shown)
VH: B2 VH with S53G
VL: B2 VL
B10: modified CD33 chimeric antibody ver.4 (KM4084) (antibody, V domains shown)
VH: B2 VH with S53A
VL: B2 VL
B11: modified CD33 chimeric antibody ver.2 (antibody, V domains shown)
VH: B2 VH with N51S
VL: B2 VL

Each binder was assayed against T1, human CD33 on cells (human CD33-expressing CHO/DG44 cell line; CD33-positive cell lines THP-1, NB-4) (human, UniProt P20138 18-364) (assay: flow cytometry on THP-1 cells).
T1 construct: The same entry is used here for the endogenous CD33 of THP-1, NB-4 and other leukemia lines; also called hCD33; CD33 transfectant
T1 sequence (P20138 other isoform, or with tags, fused parts or gaps limits assumed): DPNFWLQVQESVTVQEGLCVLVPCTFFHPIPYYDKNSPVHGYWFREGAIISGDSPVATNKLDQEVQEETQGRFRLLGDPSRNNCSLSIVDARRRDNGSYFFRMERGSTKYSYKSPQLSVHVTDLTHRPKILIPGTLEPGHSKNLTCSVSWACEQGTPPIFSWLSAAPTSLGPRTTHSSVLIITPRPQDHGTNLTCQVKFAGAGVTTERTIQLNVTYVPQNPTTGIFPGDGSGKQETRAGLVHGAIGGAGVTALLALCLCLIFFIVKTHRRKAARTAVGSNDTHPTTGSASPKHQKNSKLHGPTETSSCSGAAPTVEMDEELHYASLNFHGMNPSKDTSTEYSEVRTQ
B1: binds.
B2: binds.

The binders below were run against T2, Recombinant human Siglec-3 (CD33)/Fc Chimera (R&D Systems, catalog number 1137-SL) (human, UniProt P20138 18-259) (assay: binding ELISA, CD33-Fc on the plate).
T2 construct: Bought product; also called recombinant human CD33-Fc; not shown: Fc part of the bought fusion protein; not described
T2 sequence (P20138 18-259 limits assumed, change not shown): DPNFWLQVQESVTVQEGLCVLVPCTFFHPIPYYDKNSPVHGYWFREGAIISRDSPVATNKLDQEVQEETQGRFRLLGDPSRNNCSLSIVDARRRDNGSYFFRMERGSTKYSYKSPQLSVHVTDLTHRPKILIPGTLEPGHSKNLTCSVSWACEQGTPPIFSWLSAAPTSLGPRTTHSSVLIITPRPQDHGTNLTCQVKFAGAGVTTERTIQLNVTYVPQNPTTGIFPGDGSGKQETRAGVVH
B2: binds.

These binders were tested against T1, human CD33 on cells (human …) (assay: FMAT on human CD33-expressing CHO/DG44 cells, hybridoma supernatant).
B3: binds.
B4: binds.
B5: binds.
B6: binds.

What follows are binders tested against T2, Recombinant human Siglec-3 (CD33)/Fc … (assay: SPR (Biacore T-100), antibody captured on anti-mouse IgG, CD33-Fc as analyte).
B3: binds.
B1: binds.
B4: binds.
B6: binds.

Each binder was assayed against T3, histidine-tagged soluble human CD33 (hCD33-His) (human, UniProt P20138 18-259) (assay: SPR (Biacore T-100), antibody captured on anti-human IgG, hCD33-His as analyte).
T3 construct: Human CD33 extracellular region with six histidines at the C-terminus, made in CHO/DG44 cells
T3 sequence (P20138 other isoform, or with tags, fused parts or gaps limits assumed): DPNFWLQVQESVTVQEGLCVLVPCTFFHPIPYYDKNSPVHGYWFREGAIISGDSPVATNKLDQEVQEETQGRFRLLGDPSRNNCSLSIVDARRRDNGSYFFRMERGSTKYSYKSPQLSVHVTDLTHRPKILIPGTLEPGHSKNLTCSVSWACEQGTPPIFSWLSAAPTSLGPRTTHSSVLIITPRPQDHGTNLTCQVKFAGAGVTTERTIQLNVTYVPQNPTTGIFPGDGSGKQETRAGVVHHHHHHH
B2: binds.
B7: binds.
B8: binds.
B9: binds.
B10: binds.
B11: binds.
